The target of this experiment is IGF1R (on MCF-7 cells) (UniProt P08069). Briefly: cell-based or functional assay.

The results in this text go back to patent US20110217695A1.

Chain of UniProt P08069 (P08069 31-1367 limits assumed): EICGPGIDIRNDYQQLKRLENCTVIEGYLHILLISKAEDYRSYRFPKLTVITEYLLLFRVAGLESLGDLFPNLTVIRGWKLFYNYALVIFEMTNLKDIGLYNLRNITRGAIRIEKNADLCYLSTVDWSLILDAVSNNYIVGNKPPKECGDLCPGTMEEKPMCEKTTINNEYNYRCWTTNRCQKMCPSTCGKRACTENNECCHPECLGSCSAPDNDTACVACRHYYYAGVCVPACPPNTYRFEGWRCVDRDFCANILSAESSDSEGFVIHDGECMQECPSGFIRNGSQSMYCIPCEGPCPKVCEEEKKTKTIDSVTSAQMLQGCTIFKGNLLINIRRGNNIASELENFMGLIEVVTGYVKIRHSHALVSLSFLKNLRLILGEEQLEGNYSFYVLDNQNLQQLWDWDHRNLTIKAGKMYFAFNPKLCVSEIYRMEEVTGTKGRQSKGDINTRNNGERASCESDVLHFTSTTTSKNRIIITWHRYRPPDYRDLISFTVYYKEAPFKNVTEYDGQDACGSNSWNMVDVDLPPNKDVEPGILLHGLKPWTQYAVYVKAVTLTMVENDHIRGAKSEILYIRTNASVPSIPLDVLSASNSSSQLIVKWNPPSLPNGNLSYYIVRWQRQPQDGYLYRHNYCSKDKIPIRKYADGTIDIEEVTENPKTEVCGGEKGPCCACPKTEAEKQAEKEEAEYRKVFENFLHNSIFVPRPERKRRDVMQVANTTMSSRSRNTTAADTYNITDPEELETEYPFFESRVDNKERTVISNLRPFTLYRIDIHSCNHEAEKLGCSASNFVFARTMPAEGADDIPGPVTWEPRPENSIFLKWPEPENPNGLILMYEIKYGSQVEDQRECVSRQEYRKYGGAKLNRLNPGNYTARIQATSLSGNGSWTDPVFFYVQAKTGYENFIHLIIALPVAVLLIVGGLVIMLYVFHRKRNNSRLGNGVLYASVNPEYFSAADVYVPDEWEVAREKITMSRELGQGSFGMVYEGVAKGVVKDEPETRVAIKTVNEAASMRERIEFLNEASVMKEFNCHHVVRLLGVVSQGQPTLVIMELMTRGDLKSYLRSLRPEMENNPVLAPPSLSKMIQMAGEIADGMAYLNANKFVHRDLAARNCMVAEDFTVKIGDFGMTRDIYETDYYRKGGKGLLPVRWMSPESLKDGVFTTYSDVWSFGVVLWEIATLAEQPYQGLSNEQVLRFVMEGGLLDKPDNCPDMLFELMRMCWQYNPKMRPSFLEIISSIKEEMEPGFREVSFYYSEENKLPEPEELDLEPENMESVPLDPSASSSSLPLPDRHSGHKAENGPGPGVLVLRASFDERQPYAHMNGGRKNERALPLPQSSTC

B1: 19D12 antibody (purified antibody obtained from 19D12 hybridoma) (antibody, from a related filing, V domains shown)
VH: EVQLVQSGGGLVHPGGSLRLSCAASGFTFSSFAMHWVRQAPGKGLEWISVIDTRGATYYADSVKGRFTISRDNAKNSLYLQMNSLRAEDMAVYYCARLGNFYYGMDVWGQGTTVTVSS
VL: EIVLTQVPDFQSVTPKEKVTITCRASQSIGSSLHWYQQKPDQSPKLLIKYASQSLSGVPSRFSGSGSGTDFTLTINSLEAEDAAAYYCHQSSRLPHTFGGGTKVEIKR
With B1, the % Inhibition, KIRA assay (IGF-I-stimulated receptor phosphorylation in MCF-7 cells), at 0.01 nM Ab (first row) is -3.26%; the % Inhibition, KIRA assay (IGF-I-stimulated receptor phosphorylation in MCF-7 cells), at 0.01 nM Ab (second row) is -0.34%; the % Inhibition, KIRA assay (IGF-I-stimulated receptor phosphorylation in MCF-7 cells), at 0.03 nM Ab is -3.18%; the % Inhibition, KIRA assay (IGF-I-stimulated receptor phosphorylation in MCF-7 cells), at 0.05 nM Ab stood at 0.87%. Moreover, the % Inhibition, KIRA assay (IGF-I-stimulated receptor phosphorylation in MCF-7 cells), at 0.10 nM Ab is 3.82%; the % Inhibition, KIRA assay (IGF-I-stimulated receptor phosphorylation in MCF-7 cells), at 0.21 nM Ab was 10.1%; the % Inhibition, KIRA assay (IGF-I-stimulated receptor phosphorylation in MCF-7 cells), at 0.42 nM Ab came to 18%; the % Inhibition, KIRA assay (IGF-I-stimulated receptor phosphorylation in MCF-7 cells), at 0.83 nM Ab was determined as 39.4%. For the same molecule, the % Inhibition, KIRA assay (IGF-I-stimulated receptor phosphorylation in MCF-7 cells), at 1.67 nM Ab is 40.5%; the % Inhibition, KIRA assay (IGF-I-stimulated receptor phosphorylation in MCF-7 cells), at 3.34 nM Ab came out at 54.6%; the % Inhibition, KIRA assay (IGF-I-stimulated receptor phosphorylation in MCF-7 cells), at 6.67 nM Ab turned out to be 69.6%.
